# B1: hz18H10v7 PD-1 sdAb-Fc fusion protein (humanized variant of 18H10) (Fc fusion)
# chain: EVQLVESGGGEVQPGGSLRLSCAASGSITGANTMGWYRQAPGKQRDLVALIGNYVTHYAESVKGRFTISRDNAKNTVYLQMSSLRAEDTAVYYCYLYTDNLGTSWGQGTLVTVKP
# notes: also called humanized 18H10 (hzv7); hzv7; not shown: hinge/linker and Fc of the sdAb-Fc fusion are not specified for the humanized variants
# Biological target: human PD-1 (programmed cell death protein-1) (human, UniProt Q15116 25-288)
# Assay: flow cytometry on enriched, anti-CD3-activated human T cells; sdAb-Fc titrated 167 nM to 0.00847 nM, anti-human IgG Alexa Fluor 647 detection
# Sequence of human PD-1 (programmed cell death protein-1) (Q15116 25-288 limits assumed): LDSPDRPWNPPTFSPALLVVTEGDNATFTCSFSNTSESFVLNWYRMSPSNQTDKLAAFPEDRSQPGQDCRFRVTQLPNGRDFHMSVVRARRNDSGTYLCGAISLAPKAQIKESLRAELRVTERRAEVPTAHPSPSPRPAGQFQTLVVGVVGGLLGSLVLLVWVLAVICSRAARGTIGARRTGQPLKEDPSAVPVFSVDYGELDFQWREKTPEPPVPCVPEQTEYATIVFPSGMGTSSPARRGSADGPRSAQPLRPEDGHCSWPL
binder,measurement,value
B1,binding result,binds

# Source: patent publication US20200190193A1 (INHIBRX, published 2020)
